# Columns and labels:
# β-amyloid = β-amyloid deposition in brain tissue of APP/PS1 mice (thioflavin S, immunofluorescence, ELISA); type: in vivo, mouse; settings: medulla and hippocampus, 50 mg/kg i.p. twice weekly, vs PBS
# Method: First, the cerebral cortex and hippocampus tissue of each mouse prepared in Example 1-1 were isolated, and then a tissue fragment was obtained and this was dyed with thioflavin S according to a conventional known method. The results are illustrated in FIG. 3 (cerebral cortex) and FIG. 4 (hippocampus).
# Also, immunofluorescence was performed according to a conventional known method using anti-20G10 (mouse, 1:1000) antibody against Aβ42, anti-G30 (rabbit, […]) antibody against Aβ40, anti-Iba-1 (rabbit, 1:500, Wako) antibody, anti-GFAP (rabbit, 1:500, DAKO) antibody and anti-active caspase3 (rabbit, 1:50, Chemicon) antibody. Tissue fragments were observed using a confocal laser scanning microscope equipped with Fluoview SV1000 imaging software (Olympus FV1000, Japan) or an Olympus BX51 microscope, and the percentage of the area of the dyed area with respect to the area of the entire tissue was quantified using Metamorph software (Molecular Devices).
# Also, β-amyloid deposition was confirmed using commercially available ELISA kits (Biosource). More specifically, hemispheres of the brain of each mouse were homogenized in a buffer containing 0.02 M of guanidine. Thereafter, ELISA was performed for Aβ40 and Aβ42 according to the manufacturer's instructions.
# After fixing the cerebral and hippocampal tissues of the mice, 0.5% thioflavin S (Sigma-Aldrich), anti-20G10 antibodies (mouse, 1:1000) against Aβ42, anti-G30 antibodies (rabbit, […]) against Aβ40, anti-GFAP antibodies (rabbit, 1:500, DAKO), or anti-Iba-1 antibodies (rabbit, 1:500, Wako) were co-cultured. The tissues were analyzed using a laser scanning confocal microscope equipped with Fluoview SV1000 imaging software (Olympus FV1000, Japan) or an Olympus BX51 microscope. Percentage of stained area to total tissue area was quantified and analyzed using Metamorph software (Molecular Devices).
# After fixing the mouse brain and hippocampus, 0.5% thioflavin S (Sigma-Aldrich), anti-GFAP (rabbit, 1:500, DAKO), and anti-Iba-1 (rabbit, 1:500, WAKO) were co-cultured together. The regions were analyzed using a laser scanning confocal microscope equipped with Fluoview SV1000 imaging software (Olympus FV1000, Japan) or an Olympus BX51 microscope. Percentage of stained area to total tissue area was quantified and analyzed using Metamorph software (Molecular Devices).
# Proteins were extracted from mouse brain and hippocampus, and the amounts of Abeta40 (KHB3481, Invitrogen) and Abeta42 (KHB3441, Invitrogen) were measured using ELISA.
# [1] = tested on: depression-induced animal model (WT/RSD); assay: Depression behaviour tests (Open field, Dark & Light, Tail suspension, Force swim) in RSD mice; type: in vivo, mouse; settings: 50 mg/kg i.p. twice weekly, vs PBS, FIG. 59A-59D
# Method: For depression-induced animal model, C57BL/6 mice (Charles River, UK) were used as those with depression by inducing Repeated Social Defeat (RSD) stress for 10 days. Repeated Social Defeat (RSD) stress was induced by placing two male, 6-8 week-old C57BL/6 mice with one male, 6-8 week-old CD-1 mouse (aggressive intruder mouse) in the same cage for 10 days, 2 hours daily. After 10 days, depression of C57BL/6 mice was confirmed through the depression behavior test. To confirm the therapeutic effect of ASM inhibitor (Smpd1 miR RNAi) in the depressed animal model, 6-week-old male C57BL/6 mice were injected with said ASM inhibitor via tail vein injection twice weekly in a dosage of 50 μg/mice for 4 weeks prior to the induction of depression. Four weeks later, behavioral analysis was performed after inducing Repeated Social Defeat (RSD) stress for 10 days, followed by obtaining plasma samples of the mice (FIG. 47A). To determine whether ASM inhibition by Smpd1 miR RNAi injection leads to the improvement of depression in a depression-induced animal model, an Open field test, a Dark & Light test, a Tail suspension test and Force swim test were performed, respectively. For depression-induced animal model, C57BL/6 mice (Charles River, UK) were used as those with depression by inducing Repeated Social Defeat (RSD) stress for 10 days. […]
molecule,measurement,setting,value
"ASM-ab 23A12C3: self-made monoclonal ASM antibody, Koma biotech; heavy chain SEQ ID NO. 29, light chain SEQ ID NO. 30 (antibody, 23A12C3_Heavy chain; 23A12C3_Light chain, self-made monoclonal ASM antibody, Koma biotech; 30) heavy: MGWSWIFLFLLSGTAGVHSEVQLQQSGPVLVKPGASVKMSCKASGYTFTDYYMNWVKQSHGKSLEWIGVINPYNDGTSYNQKFKGKATLTVDKSSSTAYMELNSLTSEDSAVYYCAREKLYYYGRDYAMDYWGQGTSVTVSSAKTTPPSVYPLAPGSAAQTNSMVTLGCLVKGYFPEPVTVTWNSGSLSSGVHTFPAVLQSDLYTLSSSVTVPSSTWPSQTVTCNVAHPASSTKVDKKIVPRDCGCKPCICTVPEVSSVFIFPPKPKDVLTITLTPKVTCVVVDISKDDPEVQFSWFVDDVEVHTAQTKPREEQINSTFRSVSELPIMHQDWLNGKEFKCRVNSAAFPAPIEKTISKTKGRPKAPQVYTIPPPKEQMAKDKVSLTCMITNFFPEDITVEWQWNGQPAENYKNTQPIMDTDGSYFVYSKLNVQKSNWEAGNTFTCSVLHEGLHNHHTEKSLSHSPGK light: MSSAQFLGLLLLCFQGTRCDIQMTQTTSSLSASLGDRVTISCRSSQDISNYLNWCQQKPDGTVKLLIYYTSRLHSGVPSRFSGSGSGTDYSLTISNLEQEDIATYFCQQDNTLPYTFGGGTKLEIKRADAAPTVSIFPPSSEQLTSGGASVVCFLNNFYPKDINVKWKIDGSERQNGVLNSWTDQDSKDSTYSMSSTLTLTKDEYERHNSYTCEATHKTSTSPIVKSFNRNEC",deposition of fibrillar Aβ (thioflavin S),"β-amyloid; FIG. 52A, 52B",significantly lower
same,deposition of Aβ40 (ELISA),"β-amyloid; FIG. 53A, 53B",significantly lower
same,deposition of Aβ42 (ELISA),"β-amyloid; FIG. 53A, 53B",significantly lower
same,symptoms of depression,[1],significantly improve

# From US12545745B2, “Method for treating a degenerative neurological disorders comprising administering ASM inhibitor” (KYUNGPOOK NATIONAL UNIVERSITY INDUSTRY-ACADEMIC COOPERATION …, priority 2013, dated 2026)
